Measurements taken from publication PMC5056442.

Molecular target: BamE (E. coli) (UniProt P0A937)
Assay: SEC + native MS; purified BamABCDE; SDS-PAGE, gel filtration (Superdex200 10/300 GL, TBS with 0.05% DDM, 21 °C) and non-covalent nanoESI-MS named together for the molar ratio

Chain of UniProt P0A937 (P0A937 20-113): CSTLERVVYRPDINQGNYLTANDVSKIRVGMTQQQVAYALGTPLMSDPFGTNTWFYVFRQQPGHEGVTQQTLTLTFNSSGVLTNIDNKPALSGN

stoichiometry N: 1 molar ratio
Substance: BamB (from UniProt P77774 20-392) (natural protein)
